Test [1] concerns the target CgHspB1 N-terminal deletion mutant (CgHspB1DeltaN), N-terminal 30 amino acids deleted, from pET23b (Chinese hamster). Kind of test: SEC; HPLC-SEC, SB-804HQ gel-filtration column, sample heated at the specified temperature for 30 min, buffer B (50 mM Tris-HCl pH 7.5, 0.1 mM EDTA, 150 mM NaCl) with or without 20% ethylene glycol, 1.0 mL/min. (In general: In gel filtration, larger molecules generally elute earlier.)

Test [2] deals with CgHspB1C145S, CgHspB1 mutant with Cys145 replaced by Ser (Chinese hamster). Nature of the test: AUC; sedimentation velocity, 40 °C, 0.5 mg/mL, with DTT.
Test [3] has the same target. Kind of test: AUC; sedimentation velocity, 40 °C, 0.5 mg/mL, without DTT (series with and without DTT).
For test [4], the target named is CgHspB1S15D, phosphorylation mimic mutant of CgHspB1 (Ser15 replaced with Asp) (Chinese hamster). Nature of the test: AUC; sedimentation velocity, Rayleigh interference optics, 40,000 rpm, buffer containing 20% ethylene glycol; 4 °C, 0.5 mg/mL.
The target is the same in test [5]. Kind of test: AUC; sedimentation velocity, Rayleigh interference optics, 40,000 rpm, buffer containing 20% ethylene glycol; 25 °C, 1.5 mg/mL.
The target is the same in test [6]. Kind of test: AUC; sedimentation velocity, Rayleigh interference optics, 40,000 rpm, buffer containing 20% ethylene glycol; 25 °C, 0.5 mg/mL.
Test [7] has the same target. Nature of the test: AUC; sedimentation velocity, Rayleigh interference optics, 40,000 rpm, buffer containing 20% ethylene glycol; 25 °C, 0.1 mg/mL.
For test [8] the target is unchanged. Kind of test: AUC; sedimentation velocity, Rayleigh interference optics, 40,000 rpm, buffer containing 20% ethylene glycol; 40 °C, 0.5 mg/mL.
The target is the same in test [9]. Kind of test: AUC; sedimentation velocity, Rayleigh interference optics, 40,000 rpm, buffer containing 20% ethylene glycol; 40 °C, 1.5 mg/mL.
Test [10] has the same target. Nature of the test: AUC; sedimentation velocity, Rayleigh interference optics, 40,000 rpm, buffer containing 20% ethylene glycol; 4 °C, 0.1 mg/mL.
Test [11] shares this target. Kind of test: AUC; sedimentation velocity, Rayleigh interference optics, 40,000 rpm, buffer containing 20% ethylene glycol; 40 °C, 0.1 mg/mL.
For test [12] the target is unchanged. Kind of test: AUC; sedimentation velocity, Rayleigh interference optics, 40,000 rpm, buffer containing 20% ethylene glycol; 4 °C, 1.5 mg/mL.
In test [13] the target is HspB1 from Chinese hamster, wild type (CgHspB1WT) (Chinese hamster). Nature of the test: AUC; sedimentation velocity, Rayleigh interference optics, 40,000 rpm, buffer containing 20% ethylene glycol; 25 °C, 1.5 mg/mL.
Test [14] shares this target. Kind of test: AUC; sedimentation velocity, Rayleigh interference optics, 40,000 rpm, buffer containing 20% ethylene glycol; 25 °C, 0.5 mg/mL.
Test [15] shares this target. Kind of test: AUC; sedimentation velocity, Rayleigh interference optics, 40,000 rpm, buffer containing 20% ethylene glycol; 40 °C, 1.5 mg/mL.

One may read the stoichiometry N as a count of units in the complex or per binding partner.

In [1], “CgHspB1 N-terminal deletion mutant (CgHspB1DeltaN), N-terminal 30 amino acids deleted, from pET23b (domain or fragment)” gave a stoichiometry N of 6.

Turning to “CgHspB1C145S, CgHspB1 mutant with Cys145 replaced by Ser (natural protein)”, the stoichiometry N was found to be 21 in [2] (c(s20,w) peak a); 25 in test [2] (c(s20,w) peak b); 32 in test [2] (c(s20,w) peak c); 21 in [3] (c(s20,w) peak a); 25 in [3] (c(s20,w) peak b); 33 in test [3] (c(s20,w) peak c).

Regarding “CgHspB1S15D, phosphorylation mimic mutant of CgHspB1 (Ser15 replaced with Asp) (natural protein)”, the stoichiometry N came out at 19 in [4]; 19 in test [5]; 19 in [6]; 18 in [7]; 26 in [8]; 27 in [9]. Further, the stoichiometry N in [10] was 19; in test [11], 26; in test [12], 18.

Turning to “HspB1 from Chinese hamster, wild type (CgHspB1WT) (natural protein)”, the stoichiometry N in test [13] (c(s20,w) peak a) turned out to be 20; in [13] (c(s20,w) peak b), 30; in test [14] (c(s20,w) peak b) it was 6; in test [14] (c(s20,w) peak c) it was 18; in [15] (c(s20,w) peak a), 20; in [15] (c(s20,w) peak b) it was 27. Besides, in [15] (c(s20,w) peak c), the stoichiometry N came to 38.

Values taken from article PMC8509488.
